From PMC5933747 (PLoS ONE, 2018)

Key:
[1] = target: human NaV1.4 (Homo sapiens, UniProt P35499); experiment: PatchXpress (PX) automated electrophysiology, human NaV1.4; format: cell-based; details: PX platform; at least ten cells, two to three data points per concentration
Experimental: Human NaV (hNaV) stably transfected cell lines in HEK293 or CHO backgrounds and cell culture methods were as previously described. hNaV1.1-hNaV1.7 cells were obtained from Eurofins Pharma Discovery Services (St. Charles, MO), and hNaV1.8 cells were generated in house. Whole cell patch clamp, PatchXpress, and IWQ electrophysiology voltage protocols as well as DRG neuron isolation were carried out as previously described. NaV1.7-NaV1.5 chimeras were generated and evaluated in BacMam transduced U2-OS cells on the IWQ platform as previously described.

[2] = target: human NaV1.5 (Homo sapiens, UniProt Q14524); experiment: PatchXpress (PX) automated electrophysiology, human NaV1.5; format: cell-based; details: PX platform; at least ten cells, two to three data points per concentration
[3] = target: T1, human NaV1.7 (Homo sapiens, UniProt Q15858); experiment: 125I-ProTx-II radioligand binding to live HEK293 cells stably expressing human NaV1.7; details: 0.5 nM 125I-ProTx-II, 3 h, increasing concentrations of cold peptide
[4] = target: T1, human NaV1.7
[5] = target: T1, human NaV1.7; remark: listed apart in the source
[6] = target: T1, human NaV1.7; remark: listed apart in the source
[7] = target: wild-type NaV1.5 (Homo sapiens, UniProt Q14524)
[8] = target: T1, human NaV1.7; remark: listed apart in the source

T1 sequence (Q15858 whole entry): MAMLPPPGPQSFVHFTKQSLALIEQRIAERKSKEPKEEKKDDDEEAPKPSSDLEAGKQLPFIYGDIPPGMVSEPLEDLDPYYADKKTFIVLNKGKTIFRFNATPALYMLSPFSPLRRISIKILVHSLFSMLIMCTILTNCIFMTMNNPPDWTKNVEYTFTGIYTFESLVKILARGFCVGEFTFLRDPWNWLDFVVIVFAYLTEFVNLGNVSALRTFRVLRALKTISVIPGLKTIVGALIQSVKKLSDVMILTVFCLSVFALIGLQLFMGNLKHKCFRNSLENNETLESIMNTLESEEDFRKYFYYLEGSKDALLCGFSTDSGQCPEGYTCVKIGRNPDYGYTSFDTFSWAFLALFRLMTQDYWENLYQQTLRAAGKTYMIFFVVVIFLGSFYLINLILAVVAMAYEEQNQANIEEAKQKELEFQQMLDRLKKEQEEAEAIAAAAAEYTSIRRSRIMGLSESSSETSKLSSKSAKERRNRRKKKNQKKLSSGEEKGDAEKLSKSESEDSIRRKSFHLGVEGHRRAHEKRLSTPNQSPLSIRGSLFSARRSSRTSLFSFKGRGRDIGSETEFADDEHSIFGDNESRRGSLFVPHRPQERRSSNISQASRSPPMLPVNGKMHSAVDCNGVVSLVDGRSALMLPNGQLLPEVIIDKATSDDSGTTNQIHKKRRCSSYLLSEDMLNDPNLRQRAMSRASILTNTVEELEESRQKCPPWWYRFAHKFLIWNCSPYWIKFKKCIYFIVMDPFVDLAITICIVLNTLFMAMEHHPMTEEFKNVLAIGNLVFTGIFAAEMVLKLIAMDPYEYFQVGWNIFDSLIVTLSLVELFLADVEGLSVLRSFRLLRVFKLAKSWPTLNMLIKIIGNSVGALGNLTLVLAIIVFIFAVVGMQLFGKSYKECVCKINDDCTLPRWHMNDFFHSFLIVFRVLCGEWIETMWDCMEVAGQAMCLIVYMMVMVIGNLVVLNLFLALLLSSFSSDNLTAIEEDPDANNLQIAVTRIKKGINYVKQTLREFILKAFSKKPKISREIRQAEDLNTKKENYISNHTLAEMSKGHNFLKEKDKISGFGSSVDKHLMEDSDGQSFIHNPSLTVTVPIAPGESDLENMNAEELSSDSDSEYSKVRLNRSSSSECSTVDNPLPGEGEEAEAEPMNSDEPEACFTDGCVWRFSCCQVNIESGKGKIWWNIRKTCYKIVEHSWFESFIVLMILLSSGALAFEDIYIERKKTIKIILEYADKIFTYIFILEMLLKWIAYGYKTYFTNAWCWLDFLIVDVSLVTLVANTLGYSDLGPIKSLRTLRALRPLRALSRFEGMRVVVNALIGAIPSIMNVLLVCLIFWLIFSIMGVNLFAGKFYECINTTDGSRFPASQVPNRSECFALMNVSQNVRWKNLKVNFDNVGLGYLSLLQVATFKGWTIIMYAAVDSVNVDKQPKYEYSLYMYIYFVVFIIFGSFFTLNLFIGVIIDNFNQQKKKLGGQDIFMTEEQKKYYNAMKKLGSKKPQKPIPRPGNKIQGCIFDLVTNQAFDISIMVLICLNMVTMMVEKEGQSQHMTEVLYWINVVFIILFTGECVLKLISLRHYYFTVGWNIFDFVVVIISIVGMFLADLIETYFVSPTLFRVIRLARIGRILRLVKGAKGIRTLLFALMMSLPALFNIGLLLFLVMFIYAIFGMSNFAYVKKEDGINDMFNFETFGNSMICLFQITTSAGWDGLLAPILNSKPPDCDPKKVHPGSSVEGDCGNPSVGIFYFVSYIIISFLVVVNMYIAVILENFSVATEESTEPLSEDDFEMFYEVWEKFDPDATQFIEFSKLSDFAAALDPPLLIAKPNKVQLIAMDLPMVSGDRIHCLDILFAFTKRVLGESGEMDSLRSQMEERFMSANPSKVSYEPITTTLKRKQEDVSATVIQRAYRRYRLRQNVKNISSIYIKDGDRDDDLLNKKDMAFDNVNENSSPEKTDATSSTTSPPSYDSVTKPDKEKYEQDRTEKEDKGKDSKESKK
Chain of human NaV1.5 (Q14524 whole entry): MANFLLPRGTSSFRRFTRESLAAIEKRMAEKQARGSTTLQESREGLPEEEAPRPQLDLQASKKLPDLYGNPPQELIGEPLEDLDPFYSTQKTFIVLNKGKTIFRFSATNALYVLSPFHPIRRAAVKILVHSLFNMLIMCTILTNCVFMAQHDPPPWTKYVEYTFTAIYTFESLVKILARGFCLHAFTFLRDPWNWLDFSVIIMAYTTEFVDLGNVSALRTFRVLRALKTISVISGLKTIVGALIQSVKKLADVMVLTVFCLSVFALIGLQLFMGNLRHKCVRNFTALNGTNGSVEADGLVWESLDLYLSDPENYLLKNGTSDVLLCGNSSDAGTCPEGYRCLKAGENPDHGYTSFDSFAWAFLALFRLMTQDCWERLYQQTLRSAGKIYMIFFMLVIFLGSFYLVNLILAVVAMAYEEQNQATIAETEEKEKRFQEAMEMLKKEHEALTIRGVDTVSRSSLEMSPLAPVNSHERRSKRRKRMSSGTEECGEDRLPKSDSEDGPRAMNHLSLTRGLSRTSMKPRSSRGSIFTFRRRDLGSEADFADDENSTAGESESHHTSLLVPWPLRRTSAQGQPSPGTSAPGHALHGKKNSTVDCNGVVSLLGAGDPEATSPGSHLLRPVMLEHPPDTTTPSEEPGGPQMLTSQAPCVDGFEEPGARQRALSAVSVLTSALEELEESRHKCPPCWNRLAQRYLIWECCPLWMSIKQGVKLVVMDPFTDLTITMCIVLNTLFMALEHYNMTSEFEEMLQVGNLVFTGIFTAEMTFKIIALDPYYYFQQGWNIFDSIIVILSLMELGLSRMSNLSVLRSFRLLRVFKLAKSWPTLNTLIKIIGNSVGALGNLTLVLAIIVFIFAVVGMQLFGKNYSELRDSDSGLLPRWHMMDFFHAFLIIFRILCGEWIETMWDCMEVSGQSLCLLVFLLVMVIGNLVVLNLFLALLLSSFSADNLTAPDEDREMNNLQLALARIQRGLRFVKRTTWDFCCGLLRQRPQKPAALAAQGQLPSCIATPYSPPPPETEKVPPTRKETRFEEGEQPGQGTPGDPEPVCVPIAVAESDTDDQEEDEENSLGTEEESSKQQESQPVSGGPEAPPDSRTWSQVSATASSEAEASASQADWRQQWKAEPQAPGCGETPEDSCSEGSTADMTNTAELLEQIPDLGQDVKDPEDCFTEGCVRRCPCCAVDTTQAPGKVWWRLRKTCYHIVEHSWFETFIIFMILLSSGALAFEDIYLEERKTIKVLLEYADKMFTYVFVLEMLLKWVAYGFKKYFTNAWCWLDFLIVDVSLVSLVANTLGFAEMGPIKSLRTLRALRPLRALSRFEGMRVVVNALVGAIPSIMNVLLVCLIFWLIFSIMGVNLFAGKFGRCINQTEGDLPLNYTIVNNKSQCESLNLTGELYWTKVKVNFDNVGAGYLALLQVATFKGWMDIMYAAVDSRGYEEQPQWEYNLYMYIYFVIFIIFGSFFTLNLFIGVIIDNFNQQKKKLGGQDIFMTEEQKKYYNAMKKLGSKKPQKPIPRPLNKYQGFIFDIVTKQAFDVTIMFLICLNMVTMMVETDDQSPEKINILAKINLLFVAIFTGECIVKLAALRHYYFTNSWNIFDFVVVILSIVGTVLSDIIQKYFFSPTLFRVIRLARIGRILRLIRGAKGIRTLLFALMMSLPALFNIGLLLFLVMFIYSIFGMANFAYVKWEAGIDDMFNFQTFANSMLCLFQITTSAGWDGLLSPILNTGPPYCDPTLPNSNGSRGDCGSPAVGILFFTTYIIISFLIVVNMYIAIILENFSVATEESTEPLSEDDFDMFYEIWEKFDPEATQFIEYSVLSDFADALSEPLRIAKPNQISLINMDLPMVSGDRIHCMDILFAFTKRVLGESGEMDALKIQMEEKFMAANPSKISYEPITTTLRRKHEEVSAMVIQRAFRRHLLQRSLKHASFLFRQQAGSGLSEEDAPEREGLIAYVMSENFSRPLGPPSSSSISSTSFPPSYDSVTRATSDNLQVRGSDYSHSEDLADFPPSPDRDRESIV
Chain of JzTx-V(1–29) (Q2PAY4 54-83): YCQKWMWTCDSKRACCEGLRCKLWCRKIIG

| Compound | IC50 [1] [nM] | IC50 [2] [nM] | NaV1.7 IC50 (nM), block of human NaV1.7 current, PatchXpress (PX) platform [4] [nM] | also measured |
| --- | --- | --- | --- | --- |
| C#CC[C@H](N)C(=O)N[C@H]1CSSC[C@@H]2NC(=O)[C@@H]3CSSC[C@@H](C(=O)N[C@@H](CCCNC(=N)N)C(=O)N[C@@H](CCCCN)C(=O)N[C@@H](CCC(=O)O)C(=O)N[C@H](C(N)=O)[C@@H](C)CC)NC(=O)[C@H](Cc4c[nH]c5ccccc45)NC(=O)[C@H](CC(C)C)NC(=O)[C@H](CCCCN)NC(=O)[C@H](CSSC[C@H](NC(=O)[C@H]([C@@H](C)O)NC(=O)[C@H](Cc4c[nH]c5ccccc45)NC(=O)[C@H](CCCC)NC(=O)[C@H](Cc4c[nH]c5ccccc45)NC(=O)[C@H](CCCCN)NC(=O)[C@H](CCC(N)=O)NC1=O)C(=O)N[C@@H](CC(=O)O)C(=O)N[C@@H](CO)C(=O)N[C@@H](CCCCN)C(=O)N[C@@H](CCCNC(=N)N)C(=O)N[C@@H](C)C(=O)N3)NC(=O)[C@H](CCCNC(=N)N)NC(=O)[C@H](CC(C)C)NC(=O)CNC(=O)[C@H](CCC(=O)O)NC2=O [Peptide 4, [Pra1;Nle6;Glu28]JzTx-V(1–29)] | 89 | 4600 | – | – |
| C#CC[C@@H]1NC(=O)[C@H](CC(=O)O)NC(=O)[C@@H]2CSSC[C@@H]3NC(=O)[C@H](CCCNC(=N)N)NC(=O)[C@H](CC(C)C)NC(=O)CNC(=O)[C@H](CCC(=O)O)NC(=O)[C@H](CSSC[C@H](NC(=O)[C@@H](N)Cc4ccc(O)cc4)C(=O)N[C@@H](CCC(N)=O)C(=O)N[C@@H](CCCCN)C(=O)N[C@@H](Cc4c[nH]c5ccccc45)C(=O)N[C@@H](CCCC)C(=O)N[C@@H](Cc4c[nH]c5ccccc45)C(=O)N[C@@H]([C@@H](C)O)C(=O)N2)NC(=O)[C@H](CSSC[C@@H](C(=O)N[C@@H](CCCNC(=N)N)C(=O)N[C@@H](CCCCN)C(=O)N[C@@H](CCC(=O)O)C(=O)N[C@H](C(N)=O)[C@@H](C)CC)NC(=O)[C@H](Cc2c[nH]c4ccccc24)NC(=O)[C@H](CC(C)C)NC(=O)[C@H](CCCCN)NC3=O)NC(=O)[C@H](C)NC(=O)[C@H](CCCNC(=N)N)NC(=O)[C@H](CCCCN)NC1=O [Peptide 5, [Nle6;Pra11;Glu28]JzTx-V(1–29)] | 194 | 6000 | – | – |
| C#CC[C@@H]1NC(=O)[C@H](CCCNC(=N)N)NC(=O)[C@H](CCCCN)NC(=O)[C@H](CO)NC(=O)[C@H](CC(=O)O)NC(=O)[C@@H]2CSSC[C@@H]3NC(=O)[C@H](CCCNC(=N)N)NC(=O)[C@H](CC(C)C)NC(=O)CNC(=O)[C@H](CCC(=O)O)NC(=O)[C@H](CSSC[C@H](NC(=O)[C@@H](N)Cc4ccc(O)cc4)C(=O)N[C@@H](CCC(N)=O)C(=O)N[C@@H](CCCCN)C(=O)N[C@@H](Cc4c[nH]c5ccccc45)C(=O)N[C@@H](CCCC)C(=O)N[C@@H](Cc4c[nH]c5ccccc45)C(=O)N[C@@H]([C@@H](C)O)C(=O)N2)NC(=O)[C@H](CSSC[C@@H](C(=O)N[C@@H](CCCNC(=N)N)C(=O)N[C@@H](CCCCN)C(=O)N[C@@H](CCC(=O)O)C(=O)N[C@H](C(N)=O)[C@@H](C)CC)NC(=O)[C@H](Cc2c[nH]c4ccccc24)NC(=O)[C@H](CC(C)C)NC(=O)[C@H](CCCCN)NC3=O)NC1=O [Peptide 6, [Nle6;Pra14;Glu28]JzTx-V(1–29)] | 110 | 3500 | – | – |
| C#CC[C@@H]1NC(=O)[C@@H]2CSSC[C@H](NC(=O)[C@@H](N)Cc3ccc(O)cc3)C(=O)N[C@@H](CCC(N)=O)C(=O)N[C@@H](CCCCN)C(=O)N[C@@H](Cc3c[nH]c4ccccc34)C(=O)N[C@@H](CCCC)C(=O)N[C@@H](Cc3c[nH]c4ccccc34)C(=O)N[C@@H]([C@@H](C)O)C(=O)N[C@H]3CSSC[C@H](NC(=O)[C@H](CCCNC(=N)N)NC(=O)[C@H](CC(C)C)NC(=O)CNC1=O)C(=O)N[C@@H](CCCCN)C(=O)N[C@@H](CC(C)C)C(=O)N[C@@H](Cc1c[nH]c4ccccc14)C(=O)N[C@H](C(=O)N[C@@H](CCCNC(=N)N)C(=O)N[C@@H](CCCCN)C(=O)N[C@@H](CCC(=O)O)C(=O)N[C@H](C(N)=O)[C@@H](C)CC)CSSC[C@H](NC(=O)[C@H](C)NC(=O)[C@H](CCCNC(=N)N)NC(=O)[C@H](CCCCN)NC(=O)[C@H](CO)NC(=O)[C@H](CC(=O)O)NC3=O)C(=O)N2 [Peptide 7, [Nle6;Pra17;Glu28]JzTx-V(1–29)] | 130 | 3100 | – | – |
| HwTx-IV (ECLEIFKACNPSNDQCCKSSKLVCSRKTRWCKYQIGK) | – | – | – | competition for 125I-ProTx-II binding [3]: competed |
| JzTx-V(1–29) (from UniProt Q2PAY4 54-83) (peptide) | – | – | – | NaV1.7 IC50 (nM), block of human NaV1.7 current in HEK293 cells, PatchXpress (PX) platform [4]: 0.6 nM; potency (IC50) of inhibition of NaV1.7 by manual patch clamp, voltage protocol with 20% of channels inactivated [5]: 0.15 nM |
| Pra-[Nle6;Glu28]JzTx-V(1–29) (peptide) | – | – | 0.5 | IC50 of block of wild-type NaV1.7, IWQ platform (chimera panel) [6]: 50 nM; IC50 of block of wild-type NaV1.5, IWQ platform (chimera panel) [7]: > 3000 nM; IC50 of block of human NaV1.7, manual patch clamp, voltage protocol with 20% of NaV channels inactivated [8]: 0.58 nM |
| [Nle6;Pra17;Glu28]JzTx-V(1–29) (peptide) | – | – | 3.6 | – |
| [Pra1;Nle6;Glu28]JzTx-V(1–29) (peptide) | – | – | 0.3 | – |
